Experimental data as given in patent US20160376343A1 (NATIONAL INSTITUTE FOR BIOTECHNOLOGY IN THE NEGEV, published 2016).

What follows are binders tested against T1, hIL-17A (human, UniProt Q16552 24-155) (assay: ELISA on captured hIL-17A, cleared E. coli lysates).
T1 construct: Bought protein
T1 sequence (Q16552 24-155 limits assumed): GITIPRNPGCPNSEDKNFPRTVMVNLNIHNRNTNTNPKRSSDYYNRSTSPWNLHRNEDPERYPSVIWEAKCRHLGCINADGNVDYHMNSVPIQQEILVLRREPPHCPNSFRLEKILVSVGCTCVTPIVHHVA

Row | binding result | Binder
1 | binds | V1 expressed in E. coli (Trx-6xHis-tagged) (receptor, Tested as cleared E. coli lysate; not shown: N-terminal thioredoxin (Trx)-6xHistidine tag of pET32) LRLLDHRALVCSQEGLNCTVKNSTCLDDSWIHPRNLTPSSPKNLQIQLHFAHTQQGDLLPVAHIEWTLQTDASILYLEGAELSVLQLNTNERLCVRFEFLSKLRHHHKRWRFTFSHFVVDPDQEYEVTVHHLPKPIPDGDPNHQSKNFLVPDCEDARMKVTTPCMSSGSLWDPNITVETLEAHQLRVSFTLWNESTHYQILLTSFPHMENHSCFEHMHHIPAPRPEEFHQRSNVTLTLSNLKGCCRHQVQIQPFFSSCLNDCLRHSATVSCPEMPDTPEPIPDYMPLW
2 | binds | V14 expressed in E. coli (Trx-6xHis-tagged) (receptor, Tested as cleared E. coli lysate; not shown: N-terminal thioredoxin (Trx)-6xHistidine tag of pET32) LRLLDHRALVCSQPGLNCTVKNSTCLDDSWIHPRNLTPSSPKDVQIQLHFAHTQHGDLFPVAHIEWTLQTDASILYLEGAELSVLQLNTNERLCVRFEFLSKLRHHHKRWRFTFSHFVVDPDQEYEVTVHHLPKPIPDRDPNHQSKNFLVPDCEDARMKVTTPCMSSGSLWDPNITVETLEAHQLRVSFTLWNESTHYQILLTSFPHMENHSCFEHMHHIPAPRPEEFHQRSNVTLTLRNLKGCCRHHVQIQPFFSSCLNDCLRHSVTVSCPEMPDTPEPIPDYMPLW
3 | binds | V20 expressed in E. coli (Trx-6xHis-tagged) (receptor, Tested as cleared E. coli lysate; not shown: N-terminal thioredoxin (Trx)-6xHistidine tag of pET32) LRLLDHRAPVCSQEGLNCTVKNSTCLDDSWIHPRNLTPSSPKDVQIQLHFAHTQQGDLVPVAHIEWTLQTDASILYLEGAELSVLQLNTNERLCVRFEFLSKLRHHHRRWRFTFSHFVVDPDREYEVTVHHLPKPIPDGDPNHQSKNFLVPDCEHPRMKVTTPCMSSGSLWDPNITVETLEAHQLRVSFTLWNESTHYQILLTSFPHMENHSCFEHMHHIPAPRPEEFHQRSNVTLTLRNLKGCCRHQVQIQPFFSSCLNDCLRHSATVSCPEMPDTPEPIPDYMPLW
4 | binds | V4 expressed in E. coli (Trx-6xHis-tagged) (receptor, Tested as cleared E. coli lysate; not shown: N-terminal thioredoxin (Trx)-6xHistidine tag of pET32) LRLLDHRALVCSQPGLNCTVKNSTCLDDSWIHPRNLTPSSPKDIQIQLHFAHTQQGDLLPVAHIEWTPQTDASILYLEGAELSVLQLNTNERLCVRFEFLSKLRHHHRRWRFTFSHFVVDPDQEYEVTVHHLPKPIPDGDPNHQSKNFLVPDCEDARMKVTTPCMSSGSLWDPNITVETLEAHQLRVSFTLWNESTHYQILLTSFPHMENHSCFEHMHHIPAPRPEEFHQRSNVTLTLRNLKGCCRHQVQIQPFFSSCLNDCLRHSATVSCPEMPDTPEPIPDYMPLW
5 | binds | V17 expressed in E. coli (Trx-6xHis-tagged) (receptor, Tested as cleared E. coli lysate; not shown: N-terminal thioredoxin (Trx)-6xHistidine tag of pET32) LRLLDHRALVCSQPGLNCTVKNSTCLDDSWIHPRNLTPSSPKDLQIQLHFAHTQQGDLLPVAHIEWTLQTDASILYLEGAELSVLQLNTNERLCVRFEFLSELRHHHRRWRFTFSHFVVDPGQEYEVTVHHLPKPIPDGDPNHQSKNFLVPDCEDARMKVTTPCMSSGSLWDPNITVETLEAHQLRVSFTLWNESTHYQILLTSFPHMENHSCFEHMHHIPAPRPEEFHQRSNVTLTLRNLKGCCRHQVQIQPFFSSCLNDCLRHSATVSCPEMPDTPEPIPDYMPLW
6 | binds | V8 expressed in E. coli (Trx-6xHis-tagged) (receptor, Tested as cleared E. coli lysate; not shown: N-terminal thioredoxin (Trx)-6xHistidine tag of pET32) LRLLDHRALVCSQEGLNCTVKNSTCLDDSWIHPRNLTPSSPKDLQIQLHFAHTQQGDLFPVAHIEWTLQTDASILYLEGAELSVLQLNTNERLCVRFEFLSKLRHHHKRWRFTFSHFVVDPDQEYEVTVHHLPKPIPDGDPNHQSKNFLVPDCEDARMKVTTPCMSSGSLWDPNITVETLEAHQLRVSFTLWNESTHYQILLTSFPHMENHSCFEHMHHIPAPRPEEFHQRSNVTLTLRNLKGCCRHQVQIQPFFSSCLNDCLRHSATVSCPEMPDTPEPIPDYMPLW
7 | binds | V18 expressed in E. coli (Trx-6xHis-tagged) (receptor, Tested as cleared E. coli lysate; not shown: N-terminal thioredoxin (Trx)-6xHistidine tag of pET32) LRLLDHRALVCSQPGLNCTVKNSTCLDDSWIHPRNLTPSSPKDLQIQLHFAHTQQGDLFPVAHIEWTLQTDASILYLEGAELSVLQLDTNERLCVRFEFLSKLRHHHRRWRFTFSHFVVDPGQEYEVTVHHLPKPIPDGDPNHQSKNFLVPDCEDARMKVTTPCMSSGSLWDPNITVETLEAHQLRVSFTLWNESTHYQILLTSFPHMENHSCFEHMHHIPAPRPEEFHQRSNVTLTLRNLKGCCRHQVQIQPFFSSCLNDCLRHSATVSCPEMPDTPEPIPDYMPLW
8 | binds | V16 expressed in E. coli (Trx-6xHis-tagged) (receptor, Tested as cleared E. coli lysate; not shown: N-terminal thioredoxin (Trx)-6xHistidine tag of pET32) LRLLDHRAPVCSQEGLNCTVKNSTCLDDSWIHPRNLTPSSPKDLQIQLHFAHTQQGDLFPVAHIEWTLQTDASILYLEGAELSVLQLNTNERLCVRFEFLSKLRHHHKRWRFTFSHFVVDPDQEYEVTVHHLPKPIPDGDPNHQSKNFLVPDCEDARMKVTTPCMSSGSLWDPNITVETLEAHQLRVSFTLWNESTHYQILLTSFPHMENHSCFEHMHHIPAPRPEEFHQRSNVTLTLRNLKGCCRHQVQIQPFFSSCLNDCLRHSATVSCPEMPDTPEPIPDYMPLW
9 | binds | V7 expressed in E. coli (Trx-6xHis-tagged) (receptor, Tested as cleared E. coli lysate; not shown: N-terminal thioredoxin (Trx)-6xHistidine tag of pET32) LRLLDHRALVCSQPGLNCTVKNSTCLDDSWIHPRNLTPSSPKDLQIQLHFAHTQQGDLVPVAHIEWTLQTDASILYLEGAELSVLQLNTNERLCVRFEFLSKLRHHHKRWRFTFSHFVVDPDQEYEVTVHHLPKPIPDGDPNHQSKNFLVPDCEDARMKVTTPCMSSGSLWDPNITVETLEAHQLRVSFTLWNESTHYQILLTSFPHMENHSCFEHMHHIPAPRPEEFHQRSNVTLTLRNLKGCCRHQVQIQPFFSSCLNDCLRHSATVSCPEMPDTPEPIPDYMPLW
10 | binds | V12 expressed in E. coli (Trx-6xHis-tagged) (receptor, Tested as cleared E. coli lysate; not shown: N-terminal thioredoxin (Trx)-6xHistidine tag of pET32) LRLLDHRAPVCSQPGLNCTVKNSTCLDDSWIHPRNLTPSSPKDLQIQLHFAHTQQGDLFPVAHIEWTLQTDASILYLEGAELSVLQLNTNERLCVRFEFLSKLRHHHRRWRFTFSRFVVDPDQEYEVTVHHLPKPIPDGDPNHQSKNFLVPDCEHPRMKVTTPCMSSGSLWDPNITVETLEAHQLRVSFTLWNESTHYQILLTSFPHMENHSCFEHMHHIPAPRPEEFHQRSNVTLTLRNLKGCCRHQVQIQPFFSSCLNDCLRHSATVSCPEMPDTPEPIPDYMPLW
11 | binds | V13 expressed in E. coli (Trx-6xHis-tagged) (receptor, Tested as cleared E. coli lysate; not shown: N-terminal thioredoxin (Trx)-6xHistidine tag of pET32) LRLLDHRALVCSQPGLNCTVKNSTCLDDSWIHPRNLTPSSPKDLQIQLHFAHTQQGDLFPVAHIEWTLQTDASILYLEGAELSVLQLNTNERLCVKFEFLSKLRHHHRRWRFTFSHFVVDPDQEYEVTVHHLPKPIPDGDPNHQSKNFLVPDCEDARMKVTTPCMSSGSLWDPNITVETLEAHQLRVSFTLWDESTHYQILLTSFPHMENHSCFEHMHHIPAPRPEEFHQRSNVTLTLRNLKWCCRHQVQIQPFFSSCLNDCLRHSATVSCPEMPDTPEPIPDYMPLW
12 | binds | V5 expressed in E. coli (Trx-6xHis-tagged) (receptor, Tested as cleared E. coli lysate; not shown: N-terminal thioredoxin (Trx)-6xHistidine tag of pET32) LRLLDHRALVCSQPGLNCTVKNSTCLDDSWIHPRNLTPSSPKNLQIQLHFAHTQQGDLLPVAHIEWTLQTDASILYLEGAELSVLQLNTNERLCVKFEFLSKLRHHHKRWRFTFSHFVVDPDQEYEVTVHHLPKPIPDGDPNHQSKNFLVPDCEHARMKVTTPCMSSGSLWDPNITVETLEAHQLRVSFTLWNESTHYQILLTSFPHMENHSCFEHMHHIPAPRPEEFHQRSNVTLTLRNLKGCCRHQVQIQPFFSSCLNDCLRHSATVSCPEMPDTPEPIPDYMPLW
13 | binds | V19 expressed in E. coli (Trx-6xHis-tagged) (receptor, Tested as cleared E. coli lysate; not shown: N-terminal thioredoxin (Trx)-6xHistidine tag of pET32) LRLLDHQALVCSQEGLNCTVKNSTCLDDSWIHPRNLTPSSPKDIQIQLHFAHTQQGDLLPVAHIEWTLQTDASILYLEGAELSVLQLNTNERLCVRFEFLSKLRHHHRRWRFTFSHFVVDPDQEYEVTVHHLPKPIPDGDPNHQSKNFLVPDCEHARMKVTTPCMSSGSLWDPNITVETLEAHQLRVSFTLWNESTHYQILLTSFPHMENHSCFEHMHHIPAPRPEEFHQRSNVTLTLRNLKGCCRHQVQIQPFFSSCLNDCLRHSATVSCPEMPDTPEPIPDYMPLW
14 | binds | V11 expressed in E. coli (Trx-6xHis-tagged) (receptor, Tested as cleared E. coli lysate; not shown: N-terminal thioredoxin (Trx)-6xHistidine tag of pET32) LRLLDHRALVCSQEGLNCTVKNSTCLDDSWIHPRNLTPSSPKDLQIQLHFAHTQQGDLFPVAHIEWTLQTDASILYLEGAELSVLQLNTNERLCVRFEFLSKLRHHHKRWRFTFSHFVVDPDREYEVTVHHLPKPIPDGDPNHQSKNFLVPDCEHPRMKVTTPCMSSGSLWDPNITVETLEAHQLRVSFTLWNESTHYQILLTSFPHMENHSCFEHMHHIPAPRPEEFHQRSNVTLTLRNLKGCCRHQVQIQPFFSSCLNDCLRHSATVSCPEMPDTPEPIPDYMPLW
15 | binds | V15 expressed in E. coli (Trx-6xHis-tagged) (receptor, Tested as cleared E. coli lysate; not shown: N-terminal thioredoxin (Trx)-6xHistidine tag of pET32) LRLLDHRALVCSQPGLNCTVKNSTCLDDSWIHPRNLTPSSPKDVQIQLHFAHTQQGDLFPVAHIEWTLQTDASILYLEGAELSVLQLNTNERLCVRFEILSKLRHHHRRWRFTFSHFVVDPGQEYEVTVHHLPKPIPDGDPNHQSKNFLVPDCEHARMKVTTPCMSSGSLWDPNITVETLEAHQLRVSFTLWNESTHYQILLTSFPHMENHSCFEHMHHIPAPRPEEFHQRSNVTLTLRNLKGCCRHQVQIQPFFSSCLNDCLRHSVTVSCPEMPDTPEPIPDYMPLW
16 | binds | V21 expressed in E. coli (Trx-6xHis-tagged) (receptor, Tested as cleared E. coli lysate; not shown: N-terminal thioredoxin (Trx)-6xHistidine tag of pET32) LRLLDHRALVCSQPGLNCTVKNSTCLDDSWIHPRNLTPSSPKDLQIQLHFAHTQQGDLLPVAHIEWTLQTDASILYLEGAELSVLQLNTNERLCVRFEFLSKLRHHHKRWRFTFSHFVVDPGQEYEVTVHHLPKPIPDGDPNHQSKNFLVPDCEHPRMKVTTPCMSSGSLWDPNITVETLKAHQLRVSFTLWNESTHYQILLISFPHMENHSCFEHMHHIPAPRPEEFHQRSNVTLTLRNLKGCCRHQVQIQPFFSSCLNDCLRHSATVSCPEMPDTPEPIPDYMPLW
